Reference: patent US20210246166A1 (Bayer, published 2021)
Numbered stars: 1 amine (or outer) side, 2 acyl side, 3 side chain; on linkers, the order of the positions; unused ones are H or OH. Bridge positions count the residues as written; N and C are the ends. Square brackets hold non-standard residues; d marks the D form. Primed or numbered codes have the meaning given here. Ends that are not written are not given here. * marks the point of attachment. Phe(2,3-F2) = (2S)-3-(2,3-difluorophenyl)-2-aminopropanoic acid, O=C([C@H](Cc1cccc(F)c1F)N[*:1])[*:2]; Tranexamic″ = tranexamic acid, NC[C@H]1CC[C@@H](C(=O)*)CC1; Ida = iminodiacetic acid, O=C(CN(CC(=O)[*:3])[*:1])[*:2]; Oic = O=C(O)[C@@H]1C[C@@H]2CCCC[C@@H]2N1; PEG8 = NCCOCCOCCOCCOCCOCCOCCOCCOCCC(=O)O; PEG7 = NCCOCCOCCOCCOCCOCCOCCOCCC(=O)O; tBuAla = CC(C)(C)C[C@H](N)C(=O)O; PEG5 = NCCOCCOCCOCCOCCOCCC(=O)O; Pen = CC(C)(S)[C@H](N)C(=O)O; Tranexamic = tranexamic acid; NMeA = CN[C@@H](C)C(=O)O; Orn = NCCC[C@H](N)C(=O)O; Sar = CNCC(=O)O

T1: recombinant human MASP1 active protease (amino acids 297-699, C-terminal His Tag) (human, UniProt P48740 297-699)
T1 sequence: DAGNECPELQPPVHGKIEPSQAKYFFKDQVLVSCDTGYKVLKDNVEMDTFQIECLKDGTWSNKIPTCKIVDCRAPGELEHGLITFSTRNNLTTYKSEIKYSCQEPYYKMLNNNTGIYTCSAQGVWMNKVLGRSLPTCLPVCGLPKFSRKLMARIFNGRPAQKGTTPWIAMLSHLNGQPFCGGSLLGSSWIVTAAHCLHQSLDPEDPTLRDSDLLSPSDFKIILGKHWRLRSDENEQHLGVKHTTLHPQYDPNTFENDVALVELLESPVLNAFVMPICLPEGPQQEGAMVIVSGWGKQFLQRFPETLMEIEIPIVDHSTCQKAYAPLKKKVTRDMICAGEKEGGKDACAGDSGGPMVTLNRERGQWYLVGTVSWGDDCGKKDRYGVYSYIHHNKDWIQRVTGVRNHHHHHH

B1: Example 430: ((N-Me)G)-IC+SRS-((tBu)A)-PPI-(Pen)+IP-(Orn)-(Orn)-(Orn)-NH2 (peptide)
peptide: [Sar]ICSRS[tBuAla]PPI[Pen]IP[Orn][Orn][Orn]-NH2
modifications: disulfide 3-11; N-terminus assumed
SMILES: CC[C@H](C)[C@H](NC(=O)CNC)C(=O)N[C@H]1CSSC(C)(C)[C@@H](C(=O)N[C@H](C(=O)N2CCC[C@H]2C(=O)N[C@@H](CCCN)C(=O)N[C@@H](CCCN)C(=O)N[C@@H](CCCN)C(N)=O)[C@@H](C)CC)NC(=O)[C@H]([C@@H](C)CC)NC(=O)[C@@H]2CCCN2C(=O)[C@@H]2CCCN2C(=O)[C@H](CC(C)(C)C)NC(=O)[C@H](CO)NC(=O)[C@H](CCCNC(=N)N)NC(=O)[C@H](CO)NC1=O
B2: Example 435: (Tranexamic)-IC+SRS-((tBu)A)-PPI-(Pen)+IP-(PEG4(19 atoms))-NH2 (peptide)
peptide: [Tranexamic]ICSRS[tBuAla]PPI[Pen]IP[PEG5]-NH2
modifications: disulfide 3-11
B3: Example 443: ((N-Me)A)-IC+SRS-((tBu)A)-P-((3R,6R)-1,1-Difluoro-5-azaspiro[2.4]heptane-6-carboxylic acid (enantiomer 1))-I-(Pen)+IP-NH2 (peptide)
peptide: [NMeA]ICSRS[tBuAla]P[(3R,6R)‑1,1‑Difluoro‑5‑azaspiro(2.4)heptane‑6‑carboxylic acid (enantiomer 1)]I[Pen]IP-NH2
modifications: disulfide 3-11
B4: Example 426: (Tranexamic)-IC+SRS-((tBu)A)-PPI-(Pen)+IP-(PEG7(25 atoms))-NH2 (peptide)
peptide: {Tranexamic″}-ICSRS[tBuAla]PPI[Pen]IP-{PEG7-NH2}
modifications: disulfide 2-10
SMILES: CC[C@H](C)[C@@H]1NC(=O)[C@@H]2CCCN2C(=O)[C@@H]2CCCN2C(=O)[C@H](CC(C)(C)C)NC(=O)[C@H](CO)NC(=O)[C@H](CCCNC(=N)N)NC(=O)[C@H](CO)NC(=O)[C@@H](NC(=O)[C@@H](NC(=O)[C@H]2CC[C@@H](CN)CC2)[C@@H](C)CC)CSSC(C)(C)[C@@H](C(=O)N[C@H](C(=O)N2CCC[C@H]2C(=O)NCCOCCOCCOCCOCCOCCOCCOCCC(N)=O)[C@@H](C)CC)NC1=O
B5: Example 445: ((N-Me)A)-IC+SRS-((tBu)A)-P-((3R,6R)-1,1-Difluoro-5-azaspiro[2.4]heptane-6-carboxylic acid (enantiomer 2))-I-(Pen)+IP-NH2 (peptide)
peptide: [NMeA]ICSRS[tBuAla]P[(3R,6R)‑1,1‑Difluoro‑5‑azaspiro(2.4)heptane‑6‑carboxylic acid (enantiomer 2)]I[Pen]IP-NH2
modifications: disulfide 3-11
B6: Example 440: ((N-Me)G)-IC+SRS-((2S)-3-(2,3-difluorophenyl)-2-aminopropanoic acid)-PPI-(Pen)+IP-NH2 (peptide)
peptide: [Sar]ICSRS[Phe(2,3-F2)]PPI[Pen]IP-NH2
modifications: disulfide 3-11; N-terminus assumed
SMILES: CC[C@H](C)[C@H](NC(=O)CNC)C(=O)N[C@H]1CSSC(C)(C)[C@@H](C(=O)N[C@H](C(=O)N2CCC[C@H]2C(N)=O)[C@@H](C)CC)NC(=O)[C@H]([C@@H](C)CC)NC(=O)[C@@H]2CCCN2C(=O)[C@@H]2CCCN2C(=O)[C@H](Cc2cccc(F)c2F)NC(=O)[C@H](CO)NC(=O)[C@H](CCCNC(=N)N)NC(=O)[C@H](CO)NC1=O
B7: Example 427: (Tranexamic)-IC+SRS-((tBu)A)-PPI-(Pen)+IP-(PEG8(28 atoms))-NH2 (peptide)
peptide: {Tranexamic″}-ICSRS[tBuAla]PPI[Pen]IP-{PEG8-NH2}
modifications: disulfide 2-10
SMILES: CC[C@H](C)[C@@H]1NC(=O)[C@@H]2CCCN2C(=O)[C@@H]2CCCN2C(=O)[C@H](CC(C)(C)C)NC(=O)[C@H](CO)NC(=O)[C@H](CCCNC(=N)N)NC(=O)[C@H](CO)NC(=O)[C@@H](NC(=O)[C@@H](NC(=O)[C@H]2CC[C@@H](CN)CC2)[C@@H](C)CC)CSSC(C)(C)[C@@H](C(=O)N[C@H](C(=O)N2CCC[C@H]2C(=O)NCCOCCOCCOCCOCCOCCOCCOCCOCCC(N)=O)[C@@H](C)CC)NC1=O
B8: Example 441: ((N-Me)G)-IC+SRS-((2S)-3-(2,3-difluorophenyl)-2-aminopropanoic acid)-P-(Oic)-I-(Pen)+IP-NH2 (peptide)
peptide: [Sar]ICSRS[Phe(2,3-F2)]P[Oic]I[Pen]IP-NH2
modifications: disulfide 3-11; N-terminus assumed
SMILES: CC[C@H](C)[C@H](NC(=O)CNC)C(=O)N[C@H]1CSSC(C)(C)[C@@H](C(=O)N[C@H](C(=O)N2CCC[C@H]2C(N)=O)[C@@H](C)CC)NC(=O)[C@H]([C@@H](C)CC)NC(=O)[C@@H]2C[C@@H]3CCCC[C@@H]3N2C(=O)[C@@H]2CCCN2C(=O)[C@H](Cc2cccc(F)c2F)NC(=O)[C@H](CO)NC(=O)[C@H](CCCNC(=N)N)NC(=O)[C@H](CO)NC1=O
B9: Example 446: ((N-Me)G)-IC+SRSLP-(Oic)-I-(Pen)+IP-(Ida)-OH (peptide)
peptide: [Sar]ICSRSLP[Oic]I[Pen]IP[Ida]-OH
modifications: disulfide 3-11

Target: T1, recombinant human MASP1 active protease …
Test: cell-based or functional assay

Row | human MASP1 IC50 [nM] | Binder
1 | 1.4 | B1
2 | 9.2 | B2
3 | 0.78 | B3
4 | 9.1 | B4
5 | 3 | B5
6 | 18 | B6
7 | 10 | B7
8 | 65 | B8
9 | 2.7 | B9

Target: recombinant human MASP2 active protease (amino acids 297-686, C-terminal His Tag) (human, UniProt O00187 297-686)
Test: cell-based or functional assay

Sequence of recombinant human MASP2 active protease (amino acids 297-686, C-terminal His Tag) (O00187 other isoform, or with tags, fused parts or gaps limits assumed): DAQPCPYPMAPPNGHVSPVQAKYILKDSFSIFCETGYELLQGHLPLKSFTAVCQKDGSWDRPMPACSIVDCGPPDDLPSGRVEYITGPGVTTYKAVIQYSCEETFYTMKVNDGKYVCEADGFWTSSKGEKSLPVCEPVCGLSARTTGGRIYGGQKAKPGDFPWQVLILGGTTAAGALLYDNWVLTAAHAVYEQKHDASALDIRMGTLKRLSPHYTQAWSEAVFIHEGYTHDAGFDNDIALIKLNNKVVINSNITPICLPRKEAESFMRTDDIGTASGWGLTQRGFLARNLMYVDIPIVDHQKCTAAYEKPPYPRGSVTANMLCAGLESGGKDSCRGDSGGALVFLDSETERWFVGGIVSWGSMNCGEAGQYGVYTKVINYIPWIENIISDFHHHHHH

Row | human MASP2 IC50 [nM] | Binder
10 | 91 | B1
11 | 17 | B2
12 | 74 | B3
13 | 15 | B4
14 | 300 | B5
15 | 26 | B6
16 | 15 | B7
17 | 220 | B8
18 | 72 | B9
